How the values were obtained:
[1] = molecular target: Rhesus monkey Claudine18.2 (Rhesus monkey) (UniProt F6YQY3); assay: FACS on CHOK1-rh18.2 cells
[2] = molecular target: mouse Claudine18.2 (mouse) (UniProt P56857); assay: FACS on CHOK1-m18.2 cells

| Binder | FACS MFI [1] | FACS MFI [2] |
| --- | --- | --- |
| Ab30 (antibody, V domains shown) VH: QVQLKESGPGLVAPSQSLSITCTVSGFSLTKFGVNWVRQPPGKGLEWLGAIWGDGSTNYHSALISRLSINKDNSKSQVFLKLSSLQNVDTATYYCAKSGYGNAMDYWGHGTSVTVSS VL: DIVMTQSPSSLTVTTGEKVTLNCKSSQSLLNSGNLKNYLTWYQQRPGQPPKLLIYWASTRESGVPYRFTGSGSGTDFTLTISNVQAEDLAIYYCQNDYFFPFTFGSGTKLEIK | 10500 | 9610 |
| Ab06 (antibody, V domains shown) VH: EVQLVASGGGLVKPGGSLKLSCAASGITFRSYAMSWVRQTPEKRLEWVATITDGGSYIFYPDNVKGRFTISGDHAKNNLYLQMSHLKSEDTALYFCVRLYYGNSFAYWGQGTLVTVSA VL: DIVMTQSPSSLTVTAGEKVTLNCKSSQSLFNSGNQKNYLTWYQQKPGQPPKLLIYWASTRESGVPDRFTGSGSGTDFTLTFSSVQAEDLAVYYCQNAYIYPFTFGSGTKLEIK | 14000 | 13200 |
| Ab34 (antibody, V domains shown) VH: EVLLQQSGPELVKPGASVKIPCKASGYTFSDYNMDWVKQSHGKSLEWIGHINPNNDNTIYNQKFKGKATLTVDKSSNTAYMDLRSLSSEDTAVYYCARGAYYGNSMDYWGQGTSVTVSS VL: DIVMTQSPSSLTVTAGERVTMSCKSSQSLLNGGNQRNYLTWYQQKPGQSPKLLIYWASTWESGVPDRFTGSGSGTDFTLTISSVQAEDLAVYYCQNAYFYPYTFGGGTKLEIK | 6720 | 10700 |
| Ab09 (antibody, V domains shown) VH: EVQLQQSGPELVKPGTSVKMSCKASGYTFTDYNMHWVKLSHGKSLEWIGYINPNNGGTIYNQRFKGKATLTVNKSSRTAYMDLRSLTSEDSAVYYCARQGYYGNSMDYWGQGNSVTVSS VL: DIVMTQSPSSLTVTPGERVTMSCKSSQSLLNGGNQRNYLTWYQQKPGQPPKLLIYWASTRESGVPDRFAGSGSGTDFTLTISRVQAEDLSFYYCQNSYFYPFTFGSGTKLDLR | 8100 | 12600 |
| Ab27 (antibody, V domains shown) VH: QVQLQQSGAELVRPGSSVKISCKASGYAFSNYWMNWVKQRPGQGLEWIGQIYPGNGDTNYNGKFKGKATLTADKSSTTAYIQLSSLTSEDSAVYFCTRIYYGNSFAYWGQGTLVTVS VL: DIVMTQSPSSLTVTAGERVTMSCKSSQSLLNSGNQKNYLTWYQQKPGQPPKLLIYWASTRESGVPDRFTGSGSGTDFTLTISRVQAQDLAVYYCQNDYYYPLTFGAGTKLELK | 9240 | 8240 |
| Ab05 (antibody, V domains shown) VH: DVKLVESGEDLVKPGGSLKLSCAASGFTFSNYAMSWVRQTPEKRLEWVAYVSSGGDYIYYADTVKGRFIISRDNARNTLYLQMNSLRSEDTAMYYCARVYFGNSLDYWGQGTTLTVSS VL: DIVMTQSPSSLTVTAGEKVTLSCKSSQSLLNGGNQKNYLTWYQQRPGQPPKLLIYWASTRESGVPDRFTGSGSGTDFTLIISSVQAEDLAVYYCQNDYYYPWTFGGGTKLEIK | 9850 | 12500 |
| Ab12 (antibody, V domains shown) VH: EVMLVESGGGLVKPGGSLKLSCAASGFTFSSYTMSWVRQTPEKRLEWVATIIGGYGNTYYADSVKGRFTISRDSAKNTLYLQMLSLRSEDTALYYCTRLGQTQRNAMDYWGQGTSVTVSS VL: DILMTQSPSSLSVSAGEKVTMSCKSSQSLLNSGNQRNYLAWYQQKPGQPPKLLIYGASTRESGVPDRFTGSGSGTDFTLTISSVQAEDLAVYYCQNDYYYPLTFGAGTKLELK | 7610 | 13100 |
| Ab01 (antibody, V domains shown) VH: DVQLQESGPGLVKPSQSLSLTCSVTGYSITSGYYWNWIRQFPGNKLEWMGYITYDGSNNYNPSLKNRISITRDTSKNQFFLKLNSVTTEDAATYFCARDPNYYGTTLPAWFVYWGQGTLVTVSA VL: DIVVTQSHKFMSTSVGDRVSITCKASQDVGTAVAWYQQKPGQSPKLLIYWASTRHTGVPDRFTGSGSGTDFTLTISNVQSEDLTDYFCQQYSSYVTFGAGTKLELK | 8380 | 12700 |
| Ab29 (antibody, V domains shown) VH: EVLLQQSGPELVKPGASVKIPCKASGYTLTDHSMDWVKQSHGKSLEWIGNILPNNGGNIYNQKFRGKATLTVDKSSSTAYMELRSLTSEDTAVYNCARGHYGNSFAYWGQGTLVIVS VL: DIVMTQSPSSLTVRAGEKVTIYCKSSQSLFNSGNQKNYLTWYQQKPGQPPKLLIYWASTRESGVPHRFTGSGSGTDFTLTISSMQADDLATYYCQNGYFFPYTFGGGTKLEIK | 25700 | 21900 |
| Ab11 (antibody, V domains shown) VH: EVMLVESGGDLVKPGGSLKLSCAASGFTFSRYTMSWVRQTPEKRLEWVATVSVGSGNTYYLDSVKGRFTISRDNAKNTLFLQMNSLRSEDTALYYCTRLGQTQRNAVDYWGQGTSVTVSS VL: DIVMTQSPSFLSVSAGEKVTMSCKSSQSLFNGGNQKNYLAWYQQKPGQPPKLLIYGASTRDSGVPDRFTGSGSGTDFTLTISNVQAEDLAIYFCQNDHSFPLTFGAGTKLELK | 7800 | 11200 |
| Ab25 (antibody, V domains shown) VH: EAQLQQSGPELVKPGASVKIFCKASGYTFTDYYINWVKQSHGKSLEWIGDINPNNGGTTYNQKFKGKATLTVDKSSSTASMELRRLTSEDSSVYYCARRDAMDYWGQGTSVTVSS VL: DIVMTQSQKFMSTTVGDRVSITCTASQNVGPAVAWYQQKPGQSPKLLIYSASRRFTGVPDRFTGSGSGTVFTLTINNVQSEDLADYFCQQYISYPLTFGAGTKLELK | 12000 | 23400 |
| Ab37 (antibody, V domains shown) VH: EVKLEESGGGLVQPGGSMKLSCVASGFTFSNYWMNWVRQYPEQGLEWVAQIRLNSDNYATHYAESVKGRFTISRDDSRSTVYLQMNNLRAEDTGIYYCTGGGEYWGQGTTLTVSS VL: DIVMTQSQKFMSTTIGDRVSITCKASQNVDTAVAWYQQKPGQSPKLLIYSASTRYTGVPDRFTGSGSGTDFTLTISNMQSEDLADYFCQQYISYQLTFGAGTKLELK | 16700 | 18600 |
| Ab03 (antibody, V domains shown) VH: EVQLQQSGPELVKPGASVKIACKASGYTFTDYNMDWVKQSHGKSLEWIGNINSYYGGTIYNQKFKGKATLTVDKSSSTAYMVLRSLTSEDNAVYYCARPHLGNALDYWGQGTSITVSS VL: DIVVTQSPSSLTVTPGEKVTMSCKSSQSLFNSGNQKNYLSWYQQNPGQPPKLLIYWASTRQSGVPDRFTGSGSGTDFTLTISSVQAEDLAGYYCQNDYIFPLTFGAGTKLELK | 1430 | 2970 |
| Ab31 (antibody, V domains shown) VH: QIQLAQSGPELKKPGETVKISCKASGYSFTNYGMNWVKQAPGKGLKWMGWINTYSGETKYADDFKGRFDFSLETSARTAYLQIKNLKIEDTATYFCARRDAMDYWGQGTSVTVSS VL: DIVMTQAAPSVPVTPGESVSISCRSSKSLLNSNGNTYLYWFLQRPGQSPQLLIYRMSNLASGVPDRFSGSGSGTAFTLRISRVEAEDVGVYYCMQHLEFPFTFGSGTKLEIK | 8010 | 7790 |
| Ab07 (antibody, V domains shown) VH: EVQLQQSGPELVKPGASVKISCKASGYSFTDYFMNWVKQSHGKGLEWIGRINPYNGDTFYNQKFKGKATLTVDKSSSTAHMELLSLTSEDFAVYYCALYDGYWGAFVYWGQGTLVTVSA VL: DIQMTQSPASLSVFVGETVTITCRASENIYSNLAWYQQKQGKSPQLLVYAATNLADGVPSRFSGSGSGTQYSLKINSLQSEDFGSYYCQHFWGTPLTFGAGTKLELK | 9040 | 15000 |
| Ab04 (antibody, V domains shown) VH: EVQLQQSGPELVKPGASVKMSCMASGYTFTDYNIHWVKRSHGSRLEWIGYISPISGGAGYNQKFMDKATLTVDKSSNTAYMELRSLTSEDSAVYYCTRGDYWGQGTTLTVSS VL: DIVMTQSPSSLAVTVGEKVTMSCKSSQSLLNSGNQKNYLTWYQQKPGQPPKLLIYWASTRKSGVPDRFTGSGSGTDFTLTISSVQAEDLGIYYCLNDYGFPLTFGAGSKLELK | 2130 | 8440 |
| Ab13 (antibody, V domains shown) VH: EVRLVESGGGLVKPGGSLKLSCAGSGFTFSSYTMSWVRQTPEKRLEWVATITIGVNIYYLDSVKGRFTISRDNAKNTLYLQMNSLRSEDTALYYCTRLGQTQRNAMDYWGQGTSVTVSS VL: DIVMTQSPTSLSVSAGEKVTMTCKSSQSLLNSGNQKNYLAWYQEKPGQPPKLLIYGASTRESGVPDRFTGSGSGTDFTLTISSVQAEDLAVYYCQNNHFYPLTFGAGTKLELK | 5630 | 12500 |
| Ab15 (antibody, V domains shown) VH: EVMLVESGGDLVKPGGSLKLSCAASGFTFSTYTMSWVRQTPEKRLEWVATIVGGGGYTYYLDSVKGRFTISRDNAKNTLYLQMISLRSEDTALYYCARMGLTQRNALDYWGQGTSITVSS VL: DIVMTQSPSSLSVSEGEKVTLNCKSSQSLFNSGNQKNYLAWYQQKPGQPPKLLIYGASTRESGVPDRFTGSGFGTDFTLTISSVQAEDLAVYYCQNDHTYPLTFGAGAKLELK | 6320 | 12200 |
| Ab35 (antibody, V domains shown) VH: DVFLQESGPGLVKPSQSLSLTCTVTGYSITSDYAWNWIRQFPGNKLEWVTYIGYSGTTSYNPSLKSRISITRDTSKNQFFLQLNSVSTEDTATYYCVRRGSYYGSYWFFDVWGAGTTVTVSS VL: QVVLSQSPAILSASPGEKVTMTCRASSSVSYMHWYQQKPGSSPKPWIYATSNLASGVPPHFSGSGSGTSYSLTISRVEAEDAATYYCQQWTSNPPTFGGGTKLEIK | 8340 | 9610 |
| Ab26 (antibody, V domains shown) VH: EVMLVESGGGLVKPGGSLKLSCTASGFTFRSYTMSWVRQTPEKRLEWVATITGGGGNTYFLDSVKGRFTFSRDNAKNALYLQMNSLRSEDTALYYCARLGQTQRNAMDYWGQGTSVTVSS VL: DIVMTQSPSSLSVSAGEKVTMSCKSSQSLLNSGNQMNYLAWYQQKPGQPPKLLIYGASTRESGVPDRFTGSGSGTDFTLTISSVQAEDLAIYYCQNDHTYPLTFGAGTKLEL | 8290 | 15700 |
